Experimental findings from publication PMC12217528, “Structural basis of topoisomerase targeting by delafloxacin” (Nature Communications, 2025) are described below.

B2: ParC55 breakage-reunion domain of S. pneumoniae topo IV (domain or fragment, Streptococcus pneumoniae)
chain: MSNIQNMSLEDIMGERFGRYSKYIIQDRALPDIRDGLKPVQRRILYSMNKDSNTFDKSYRKSAKSVGNIMGNFHPHGDSSIYDAMVRMSQNWKNREILVEMHGNNGSMDGDPPAAMRYTEARLSEIAGYLLQDIEKKTVPFAWNFDDTEKEPTVLPAAFPNLLVNGSTGISAGYATDIPPHNLAEVIDAAVYMIDHPTAKIDKLMEFLPGPDFPTGAIIQGRDEIKKAYETGKGRVVVRSKTEIEKLKGGKEQIVITEIPYEINKANLVKKIDDVRVNNKVAGIAEVRDESDRDGLRIAIELKKDANTELVLNYLFKYTDLQINYNFNMVAIDNFTPRQVGIVPILSSYIAHRREVILARSRFDKEKAEKRLHIVEGLIRVISILDEVIALIRASENKADAKENLKVSYDFTEEQAEAIVTLQLYRLTNTDVVVLQEEEAELREKIAMLAAIIGDERTMYNLMKKELREVKKKFATPRLSSLEDTAKALE
modifications: Y118 covalently linked to the 5′-phosphate of the cleaved DNA (phosphotyrosyl linkage)
notes: ParC55, the breakage-reunion domain of topoisomerase IV subunit ParC, S. pneumoniae; residues 247-734 of the printed fusion; In the crystals this domain stood on one chain with ParE30, joined through one extra histidine, as the fusion protein m1; also called ParC domains; ParC dimer; source: E. coli BL21(λDE3) pLysS, purified to >95% homogeneity (as part of the ParE30-ParC55 fusion protein)

Series [1] addresses B2. Description: crystal structure; ParE30-ParC55 fusion protein (4.5 mg/ml) mixed with 18-mer V-site or E-site duplex DNA at 1:1.2 molar ratio, 2 mM delafloxacin, 10 mM MgCl2; sitting-drop vapour diffusion, 50 mM sodium cacodylate, 62.5 mM KCl, 7.5 mM MgCl2, 2.5% Tacsimate, 5.5–7% isopropanol, pH 6.5, 301 K; V18 with PEGylated graphene nucleant 2.0 Å, V18 and E18 without 2.4 Å. The following applies: both partners purified.

Series [2] concerns the molecule itself. Described as above.

B1: ParE30 metal binding TOPRIM domain of S. pneumoniae topo IV (domain or fragment, Streptococcus pneumoniae)
chain: MKNKKDKGLLSGKLTPAQSKNPAKNELYLVEGDSAGGSAKQGRDRKFQAILPLRGKVINTAKAKMADILKNEEINTMIYTIGAGVGADFSIEDANYDKIIIMTDADTDGAHIQTLLLTFFYRYMRPLVEAGHVYIALPPLYKMSKGKGKKEEVAYAWTDGELEELRKQFGKGATLQRYKGLGEMNADQLWETTMNPETRTLIRVTIEDLARAERRVNVLMGDKVEPRRKWIEDNVKFTLEEATVF
notes: residues 2-245 of the printed fusion; In the crystals this domain stood on one chain with ParC55, joined through one extra histidine, as the fusion protein m1; also called ParE TOPRIM domain; ParE domains; source: E. coli BL21(λDE3) pLysS, purified to >95% homogeneity (as part of the ParE30-ParC55 fusion protein)
Turning to B1, the binding result in series [1] is listed as “binds”.
On to B2, for which, in series [2], the binding result was “binds”.
